Test results: the supplement of paper PMC9170038

System: MS2 coat protein
Test: apparent KD of MS2 coat protein; designed switch direction (-1 OFF switch, 1 ON switch): -1; higher = weaker reporter binding
Method in brief: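 Apparent KD, taken as the median over clusters for each design, was obtained by curve-fitting normalised cluster fluorescence. Designed RNA switches had been transcribed on Illumina chips by stalled E. coli RNA polymerase and titrated with SNAP-549-labelled MS2 coat protein, doubling from 0.7 or 1.5 nM to 3 µM.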

[1] = input ligand: microRNA oligo, concentration not stated
[2] = Eterna round: R95, input ligand: FMN 200 uM
[3] = Eterna round: R95, input ligand: microRNA oligo, concentration not stated
[4] = Eterna round: R95, input ligand: none

Sequence: CUGCUCCGUGUAGGAUAUGCGCGCACCACCCGCGCAGAAGGACAUGAGGAUCACCCAUGUAUGUUAUUAUCACGUGAGGCGCGC [Design 37] (Eterna round: R96, puzzle: Exclusion NG 1)
- apparent KD of MS2 coat protein (input ligand: FMN 200 uM): 16.8 nM
- apparent KD of MS2 coat protein [1]: 10.9 nM
- apparent KD of MS2 coat protein (input ligand: none): 18 nM

Sequence: CUGCUGGAGCUUUGCUUUAGUCGUACAUGAGGAUCACCCAUGUAGGAUAUGGUAGGCUUUGCUUACUAGAAGGAUAGAGUGAUC [salish99_ExNG3_r04_605] (Eterna round: R96, puzzle: Exclusion NG 3)
- apparent KD of MS2 coat protein (input ligand: FMN 200 uM): 289 nM
- apparent KD of MS2 coat protein [1]: 62.8 nM
- apparent KD of MS2 coat protein (input ligand: none): 94.2 nM

Sequence: CUGCUGGAGCUUUGCUUUGGUCGUACAUGAGGAUCACCCAUGUAGGAUAUGGUAGGAUUUGCUUGCUAGAAGGAUAGAGUGGUC [salish99_ExNG3_r04_610] (Eterna round: R96, puzzle: Exclusion NG 3)
- apparent KD of MS2 coat protein (input ligand: FMN 200 uM): 92.7 nM
- apparent KD of MS2 coat protein [1]: 36.1 nM
- apparent KD of MS2 coat protein (input ligand: none): 54.5 nM

Sequence: CUGGAGUCAGGAUAUGACGCAGUCCGCCCAAAUAGCGGAAAUCAGAAGGGACUUGAGGAUCACCCAAGUAAAAG [Qubilexe] (Eterna round: R97, puzzle: Exclusion 4)
- apparent KD of MS2 coat protein (input ligand: FMN 200 uM): 29.7 nM
- apparent KD of MS2 coat protein (input ligand: none): 21.8 nM

Sequence: CUGGUCCGAGGAUAUAUUAAGUGAUACAUGAGGAUCACCCAUGUAAUUUGAUGGAUGUAAAUAGAAGGCGGACUAG [JL-ex5-3.10] (puzzle: Exclusion 5)
- apparent KD of MS2 coat protein [2]: 36.8 nM
- apparent KD of MS2 coat protein [3]: 63.5 nM
- apparent KD of MS2 coat protein [4]: 45 nM

Sequence: CUGGUCCGAGGAUAUAUUAAGUGAUACAUGAGGAUCACCCAUGUUAUUUAAUGGAUGUUAAUAGAAGGCGGACUAG [JL-ex5-3.19] (puzzle: Exclusion 5)
- apparent KD of MS2 coat protein [2]: 33.9 nM
- apparent KD of MS2 coat protein [3]: 43.9 nM
- apparent KD of MS2 coat protein [4]: 34.8 nM

Sequence: CUGGUCCGAGGAUAUAUUAUGUGAUACAUGAGGAUCACCCAUGUAAUAUGAUGGAAGUAAAUAGAAGGCGGACUAG [Mat - Exclusion 5 - JL mod - D46] (puzzle: Exclusion 5)
- apparent KD of MS2 coat protein [2]: 42.5 nM
- apparent KD of MS2 coat protein [3]: 55.8 nM
- apparent KD of MS2 coat protein [4]: 58.1 nM

Sequence: CUGGUCCGAGGAUAUAUUAUGUGAUACAUGAGGAUCACCCAUGUUAUAUGAUGGAUGUUAAUAGAAGGCGGACUAG [JL-ex5-3.20] (puzzle: Exclusion 5)
- apparent KD of MS2 coat protein [2]: 109 nM
- apparent KD of MS2 coat protein [3]: 109 nM
- apparent KD of MS2 coat protein [4]: 184 nM

Sequence: CUGUACUGAGGAUAUACAUGAGGAUCACCCAUGUGUCCUGGCUAGGAAACUAGCAAAGGUAGAAGGCAGUACAG [Mat - Exclusion 3 - Eli Mod - D54] (Eterna round: R97, puzzle: Exclusion 3)
- apparent KD of MS2 coat protein (input ligand: FMN 200 uM): 150 nM
- apparent KD of MS2 coat protein (input ligand: none): 18.8 nM

Sequence: CUGUACUGAGGAUAUACAUGAGGAUCACCCAUGUUCCAAGGCUAGGAAACUAGCAAAAGUAGAAGGCAGUACAG [Mat - Exclusion 3 - Eli Mod - D55] (Eterna round: R97, puzzle: Exclusion 3)
- apparent KD of MS2 coat protein (input ligand: FMN 200 uM): 556 nM
- apparent KD of MS2 coat protein (input ligand: none): 32.7 nM

Sequence: CUGUUUUCCGCAGGAUAUGCUCCUCCAUUAUUUGCAGAAGGGCGUUGAACAUGAGGAUCACCCAUGUAUGGAAAUGACUAUUGC [JR_ExcNG1_Sub069] (Eterna round: R96, puzzle: Exclusion NG 1)
- apparent KD of MS2 coat protein (input ligand: FMN 200 uM): 19.5 nM
- apparent KD of MS2 coat protein [1]: 11.2 nM
- apparent KD of MS2 coat protein (input ligand: none): 16.5 nM

Sequence: CUUAGUAUCUAGGAUAUCUAGUACAUAGUAUCUAGAGAAGGAGAUACAUGAGGAUCACCCAUGUUCUGUGAUCU [Exclusion 6 - 2:d] (puzzle: Exclusion 6)
- apparent KD of MS2 coat protein [3]: 217 nM

Sequence: CUUAGUAUCUAGGAUAUCUAGUACAUAGUAUCUAGAGAAGGAGAUACAUGAGGAUCACCCAUGUUCUGUGUUCU [Exclusion 6 - 1:b] (Eterna round: R96, puzzle: Exclusion 6)
- apparent KD of MS2 coat protein [1]: 18.2 nM
- apparent KD of MS2 coat protein (input ligand: none): 24.8 nM

Sequence: CUUAGUAUCUAGGAUAUCUAGUACAUAGUAUCUAGAGAAGGAGAUACAUGAGGAUCACCCAUGUUCUGUGUUCU [Exclusion 6 - 1:b] (puzzle: Exclusion 6)
- apparent KD of MS2 coat protein [3]: 22.2 nM

Sequence: CUUCGACAUGAGGAUCACCCAUGUCAGGAUAUUGUUUAUCUGGUUUUUUACAGAUAUACAAGAAGGGAUGUGUU [LRO-Excl1-02] (puzzle: Exclusion 1)
- apparent KD of MS2 coat protein [3]: 25.9 nM

Sequence: CUUCGUAUAGAGGAUAUAGGAUACUACGGUGUCCUAGAAGGCUGUACAUGAGGAUCACCCAUGUACUUCAGAUC [Exclusion 6 - B - 14:a] (puzzle: Exclusion 6)
- apparent KD of MS2 coat protein [3]: 11.5 nM

Sequence: CUUCGUAUAGAGGAUAUAGGUUACUUCGGUAUCCUAGAAGGCUGUACAUGAGGAUCACCCAUGUACUUCAGAUC [Exclusion 6 - B - 13:a] (puzzle: Exclusion 6)
- apparent KD of MS2 coat protein [3]: 12.2 nM

Sequence: CUUGUUUAUGUAGGAUAUGCCUGGCGUGCCUUUGCAGAAGGACAUGAGGAUCACCCAUGUAACAUGAGGAUCACCCAUGUCGCA [salish99_ExNG1_r04_103] (Eterna round: R96, puzzle: Exclusion NG 1)
- apparent KD of MS2 coat protein (input ligand: FMN 200 uM): 1190 nM
- apparent KD of MS2 coat protein [1]: 555 nM
- apparent KD of MS2 coat protein (input ligand: none): 854 nM

Sequence: CUUGUUUAUGUAGGAUAUGCCUGGCGUGCCUUUGCAGAAGGACAUGAGGAUCACCCAUGUAACAUGAGGCUCACCCAUGUCGCA [salish99_ExNG1_r04_104] (Eterna round: R96, puzzle: Exclusion NG 1)
- apparent KD of MS2 coat protein (input ligand: FMN 200 uM): 376 nM
- apparent KD of MS2 coat protein [1]: 256 nM
- apparent KD of MS2 coat protein (input ligand: none): 353 nM

Sequence: CUUGUUUAUGUAGGAUAUGCCUGGCGUGCCUUUGCAGAAGGACAUGAGGAUCACCCAUGUAACAUGAGGCUCACCCUUGUCGCC [salish99_ExNG1_r04_116] (Eterna round: R96, puzzle: Exclusion NG 1)
- apparent KD of MS2 coat protein (input ligand: FMN 200 uM): 146 nM
- apparent KD of MS2 coat protein [1]: 90.1 nM
- apparent KD of MS2 coat protein (input ligand: none): 114 nM

Sequence: CUUUAGUAAGGAUAUCAGCUUAGGAGGUUGGUAAUGAGAGCUGAGAAGGUACAUGAGGAUCACCCAUGUUAGUU [JL Zatite mod 9] (puzzle: Exclusion 4)
- apparent KD of MS2 coat protein [3]: 17.1 nM

Sequence: CUUUAGUGAGGAUAUCAGUAGUAAUACAAUAGUAUUACUACUGAGAAGGCACAUGAGGAUCACCCAUGUUCUUC [Mat - Exclusion 4 - Mod of Omei - D77] (puzzle: Exclusion 4)
- apparent KD of MS2 coat protein [3]: 18.8 nM

Sequence: CUUUUGUGAGGAUAUCAGUAGUAAAAUAAUAAAAUUACUACUGAGAAGGCACAUGAGGAUCACCCAUGUUCCUC [salish99_ex4_r3_019] (puzzle: Exclusion 4)
- apparent KD of MS2 coat protein [3]: 36.4 nM

Sequence: CUUUUGUGAGGAUAUUAAUAGUAAGUAAAUAAAAUUAUUACUAAGAAGGCACAUGAGGAUCACCCAUGUUUCUC [EX4 #83] (Eterna round: R97, puzzle: Exclusion 4)
- apparent KD of MS2 coat protein (input ligand: FMN 200 uM): 76.8 nM
- apparent KD of MS2 coat protein (input ligand: none): 41.8 nM

Sequence: CUUUUGUGAGGAUAUUAGUAGUAAAUAAAUAAAAUUACUACUGAGAAGGCACAUGAGGAUCACCCAUGUUCCUC [Salish 062 v16] (Eterna round: R97, puzzle: Exclusion 4)
- apparent KD of MS2 coat protein (input ligand: FMN 200 uM): 358 nM
- apparent KD of MS2 coat protein (input ligand: none): 42.9 nM

Sequence: CUUUUGUGAGGAUAUUAGUAGUAAAUAAAUAAAAUUACUACUGAGAAGGCACAUGAGGAUCACCCAUGUUCCUC [salish99_ex4_r3_041] (Eterna round: R96, puzzle: Exclusion 4)
- apparent KD of MS2 coat protein (input ligand: FMN 200 uM): 424 nM
- apparent KD of MS2 coat protein [1]: 32.8 nM
- apparent KD of MS2 coat protein (input ligand: none): 35.4 nM

Sequence: CUUUUGUGAGGAUAUUAGUAGUAAAUAAAUAAAAUUACUACUGAGAAGGCACAUGAGGAUCACCCAUGUUCCUC [salish99_ex4_r3_041] (puzzle: Exclusion 4)
- apparent KD of MS2 coat protein [3]: 34.6 nM

Sequence: CUUUUGUGAGGAUAUUAGUAGUAAAUAAAUAAAAUUACUACUUAGAAGGCACAUGAGGAUCACCCAUGUUCCUC [salish99_ex4_r3_043] (Eterna round: R96, puzzle: Exclusion 4)
- apparent KD of MS2 coat protein (input ligand: FMN 200 uM): 238 nM
- apparent KD of MS2 coat protein [1]: 25.8 nM
- apparent KD of MS2 coat protein (input ligand: none): 29.6 nM

Sequence: CUUUUGUGAGGAUAUUAGUAGUAAAUAAAUAAAAUUACUACUUAGAAGGCACAUGAGGAUCACCCAUGUUCCUC [salish99_ex4_r3_043] (puzzle: Exclusion 4)
- apparent KD of MS2 coat protein [3]: 28.3 nM

Sequence: CUUUUGUGAGGAUAUUAGUAGUAAAUAAAUAAAAUUACUAUUGAGAAGGCACAUGAGGAUCACCCAUGUUCCUC [salish99_ex4_r3_064] (puzzle: Exclusion 4)
- apparent KD of MS2 coat protein [3]: 30.3 nM

Sequence: CUUUUGUGAGGAUAUUAGUAGUAAAUAAAUAAAAUUAUUACUGAGAAGGCACAUGAGGAUCACCCAUGUUCCUU [Salish 062 v20] (Eterna round: R97, puzzle: Exclusion 4)
- apparent KD of MS2 coat protein (input ligand: FMN 200 uM): 63.6 nM
- apparent KD of MS2 coat protein (input ligand: none): 17 nM

Sequence: CUUUUGUGAGGAUAUUAGUAGUAAAUUAAUAAAAUUACUACUGAGAAGGCACAUGAGGAUCACCCAUGUUCCUC [salish99_ex4_r3_054] (puzzle: Exclusion 4)
- apparent KD of MS2 coat protein [3]: 39.7 nM

Sequence: CUUUUGUGAGGAUAUUAGUAGUAAGUAAAUAAAAUUAUUACUAAGAAGGCACAUGAGGAUCACCCAUGUUCCUC [EX4 #81] (Eterna round: R97, puzzle: Exclusion 4)
- apparent KD of MS2 coat protein (input ligand: FMN 200 uM): 108 nM
- apparent KD of MS2 coat protein (input ligand: none): 58 nM
